Earlier results as cited in publication PMC6447450.

Target: Mcl-1 (Homo sapiens) (UniProt Q07820)
Sequence (Q07820 whole entry): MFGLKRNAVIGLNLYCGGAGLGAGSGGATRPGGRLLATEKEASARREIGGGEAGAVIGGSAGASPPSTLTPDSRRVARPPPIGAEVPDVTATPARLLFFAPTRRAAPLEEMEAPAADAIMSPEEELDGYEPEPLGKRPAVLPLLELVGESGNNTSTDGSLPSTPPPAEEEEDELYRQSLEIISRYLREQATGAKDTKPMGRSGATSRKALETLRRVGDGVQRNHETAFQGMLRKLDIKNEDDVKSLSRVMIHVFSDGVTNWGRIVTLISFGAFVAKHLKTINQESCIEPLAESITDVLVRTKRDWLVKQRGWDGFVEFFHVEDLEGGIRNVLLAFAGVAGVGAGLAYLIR

Sequence of native BH3 peptide (BIM, 2PQK) BH3 (O43521 143-165): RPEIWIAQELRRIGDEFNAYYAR

- Kd: 1 nM
Substance: native BH3 peptide (BIM, 2PQK) BH3 (from UniProt O43521)
